Reference: patent US20220153832A1 (PIONYR IMMUNOTHERAPEUTICS, published 2022)
Values belong to the binder of their own block, whether it stands above or below them.

What was measured:
hVar3 (RG3036) = biological target: T1, hVar3 (RG3036) (human, UniProt Q9UEW3 147-520); assay: ELISA on hVar3
T1 construct: Human MARCO His-CLD-SRCR with Q452D, Y472S and K473S (already in the entry); also called recombinant human SRCR MARCO hVar3 protein

[1] = biological target: T2, N-terminally polyhistidine tagged human MARCO ECD (147-520), recombinant (human, UniProt Q9UEW3 147-520); assay: ProbeLife Gator
T2 construct: also called PI-RG-3000; recombinant human MARCO; not shown: N-terminal polyhistidine tag
T2 sequence: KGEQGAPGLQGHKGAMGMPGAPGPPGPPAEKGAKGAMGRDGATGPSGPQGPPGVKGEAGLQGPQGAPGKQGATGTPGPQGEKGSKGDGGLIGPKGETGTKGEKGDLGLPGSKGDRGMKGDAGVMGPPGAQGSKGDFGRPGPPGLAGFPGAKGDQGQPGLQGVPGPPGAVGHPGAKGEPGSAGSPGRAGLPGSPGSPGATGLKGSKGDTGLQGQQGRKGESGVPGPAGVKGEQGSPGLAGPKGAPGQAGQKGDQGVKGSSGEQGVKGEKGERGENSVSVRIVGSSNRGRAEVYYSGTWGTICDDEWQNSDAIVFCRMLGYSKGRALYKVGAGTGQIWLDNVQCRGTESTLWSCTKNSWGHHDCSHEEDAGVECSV
Method: The kinetics assay used either anti-mouse Fc or anti-human Fc probes to capture the anti-MARCO antibodies onto the probe, and then a five-step kinetic protocol was used to measure the affinity of the antibodies to the antigen, including the following steps: baseline, loading, baseline, association, and dissociation. The kinetics buffer (K buffer) provided by ProbeLife was used to establish the baseline for 60 seconds, and then the anti-mFc or anti-hFc probes were loaded with 200 nM of the antibodies for 120s until the capture reached saturation, measurement of the baseline in K buffer was performed for another 60s, followed by the association step using 200 nM antigen (human MARCO, mouse MARCO or cyno MARCO), and the dissociation step performed in K buffer for 5-10 minutes. The assay was done at 37° C. to maximize antibody:antigen dissociation.

[2] = biological target: T3, Cynomolgus MARCO, full length, on cells (cynomolgus, UniProt A0A2K5X0Z2 1-519); assay: flow cytometry, cells overexpressing cyno MARCO
T3 construct: whole, on cells; also called cyno MARCO; CyMARCO
T3 sequence: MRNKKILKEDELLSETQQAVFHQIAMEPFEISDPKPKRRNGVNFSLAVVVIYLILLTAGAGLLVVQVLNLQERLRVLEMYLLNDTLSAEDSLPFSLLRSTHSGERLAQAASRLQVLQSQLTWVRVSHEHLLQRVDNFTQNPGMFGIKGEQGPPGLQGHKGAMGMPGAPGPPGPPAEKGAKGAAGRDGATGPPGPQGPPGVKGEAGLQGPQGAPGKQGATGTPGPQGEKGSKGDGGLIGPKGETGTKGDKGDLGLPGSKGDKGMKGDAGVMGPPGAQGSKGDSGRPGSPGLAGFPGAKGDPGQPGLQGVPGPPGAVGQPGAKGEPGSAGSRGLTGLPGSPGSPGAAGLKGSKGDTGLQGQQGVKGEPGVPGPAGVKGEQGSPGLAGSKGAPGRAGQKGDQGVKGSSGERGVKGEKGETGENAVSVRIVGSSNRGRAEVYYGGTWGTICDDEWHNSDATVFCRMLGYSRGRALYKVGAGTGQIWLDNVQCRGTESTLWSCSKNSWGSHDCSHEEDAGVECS

[3] = biological target: T2, N-terminally polyhistidine tagged human …; assay: Biacore; sample oxidized with 1 mM AAPH, 6 hrs, 40 C
Method: (§1) (PBS)+1 mM AAPH for 6 h, 0.5 and 1.5% H₂O₂ in PBS for 24 h, which was compared to a previous experiment at 40° C. (PBS)+1 mM AAPH for 6 h. Post treatment the samples were analyzed by LC-MS/MS which identified the % modification on isolated peptides derived from the antibody after trypsin digest.
(§2) Binding of the stressed samples to recombinant human MARCO was assessed by Biacore.

[4] = biological target: T2, N-terminally polyhistidine tagged human …; assay: Biacore; sample oxidized with 0.5% H2O2 (24 hr, RT)
Method: as §1, §2

[5] = biological target: T2, N-terminally polyhistidine tagged human …; assay: ELISA readout A450-A620; the panel names no target, the legend says MARCO expressing cells; stable transfection pools
[6] = biological target: T3, Cynomolgus MARCO, full length, on cells; assay: flow cytometry, 293T (CyMARCO)
Method: Supernatants were removed and cell pellets were resuspended in Ca²⁺+ and Mg²⁺+ Dulbecco's phosphate-buffered saline (D-PBS) at 1×10⁶ cells/ml. 100,000 cells/well were plated onto U-bottom 96-well plates for staining and all centrifugation steps were performed at 1500 rpm at 4° C. for 5 min and samples were kept protected from light throughout the protocol. Cells were pelleted and resuspended in 100 μl of Zombie NIR viability dye (BioLegend) prepared by diluting Zombie NIR dimethyl sulfoxide (DMSO) stock 1000-fold in D-PBS. Cells were stained by incubation for 10 min at room temperature (RT) in the dark, followed by quenching the staining reaction with the addition of 100 μl of Staining Medium (D-PBS containing 2% FBS and 2 mM ethylenediaminetetraacetic acid (EDTA). Cells were pelleted and resuspended in 100 μl of the different antibodies and hybridomas supernatants needed for screening and corresponding isotype controls in freshly prepared staining medium, such as PI-M014 and mIgG2b isotype. All mAbs were tested at the final top concentration of 100 nM (15 μg/ml) followed by an 8-point three-fold serial dilution, including 0 mg/ml control. Staining was carried out for 1 hour (hr) on ice, followed by 2 washes in Staining Medium. Cells were then pelleted and resuspended in 100 μl of allophycocyanin (APC)-conjugated goat anti-mouse IgG (Fc-specific) secondary antibody, prepared by 500-fold dilution of the antibody stocks in Staining Medium, and incubated for 30 min on ice. […] Flow cytometry data were analyzed using FlowJo software (version 10.6.1) and data were processed and further analyzed in Microsoft Excel and GraphPad Prism software (version 8). Half-maximal effective concentrations (EC₅₀) were calculated based on geometric mean fluorescence intensities (gMFI). In case when the plates were not able to be analyzed on the cytometer, cells were pelleted after the washes and fixed in 100 μl of 2% paraformaldehyde (PFA), prepared by diluting the 16% (w/v) stock (Thermo Fisher) in DPBS, for 15 min at RT. […]

binding result (hVar3 (RG3036)): no binding
koff [1]: 0.00234 s⁻¹
EC50 [2]: 0.34 nM
B1: PI-3010-AB (antibody, human IgG1, kappa)
heavy: not shown
light: DIQMTQSPASLSTSLGETVSIECLASEGISNDLAWYQQKSGKSPQLLIYAASRLQDGVPSRFSGSGSGTRYSLKISGMQPEDEADYFCQQSYKYPLTFGSGTKLEIKRTVAAPSVFIFPPSDEQLKSGTASVVCLLNNFYPREAKVQWKVDNALQSGNSQESVTEQDSKDSTYSLSSTLTLSKADYEKHKVYACEVTHQGLSSPVTKSFNRGEC

Kd [3]: 1.1 nM
Kd [4]: 1.05 nM
EC50 (read off the curve) [5]: ~0.2 nM
B2: PI-3015-AB (antibody, human IgG1, kappa)
heavy: not shown
light: DIQMTQSPSSLSASVGDRVTITCRASEGISNDLAWYQQKPGKAPKLLIYAASRLQSGVPSRFSGSGSGTDYTLTISSMQPEDFATYYCQQSYKYPLTFGQGTKLEIKRTVAAPSVFIFPPSDEQLKSGTASVVCLLNNFYPREAKVQWKVDNALQSGNSQESVTEQDSKDSTYSLSSTLTLSKADYEKHKVYACEVTHQGLSSPVTKSFNRGEC

EC50 [6]: 0.046 nM
B3: PI-HX-3031 (antibody)
heavy: QVQLKESGPGLVQPSQTLSLTCTVSGFSLTSYHVSWVRQPPGKGLEWMGAIWTGGSIAYNSLLKSRLSISRDTSKSQVFLKMNSLQTEDTATYYCARDLSDYYSSYTSFDYWGQGVMVTVSTAETTAPSVYPLAPGTALKSNSMVTLGCLVKGYFPEPVTVTWNSGALSSGVHTFPAVLQSGLYTLTSSVTVPSSTWSSQAVTCNVAHPASSTKVDKKIVPRECNPCGCTGSEVSSVFIFPPKTKDVLTITLTPKVTCVVVDISQNDPEVRFSWFIDDVEVHTAQTHAPEKQSNSTLRSVSELPIVHRDWLNGKTFKCKVNSGAFPAPIEKSISKPEGTPRGPQVYTMAPPKEEMTQSQVSITCMVKGFYPPDIYTEWKMNGQPQENYKNTPPTMDTDGSYFLYSKLNVKKETWQQGNTFTCSVLHEGLHNHHTEKSLSHSP
light: DIQMTQSPASLSTSLGETVSIECLASEGISNDLAWYQQKSGKSPQLLIYAASRLQDGVPSRFSGSGSGTRYSLKISGMQPEDEADYFCQQSYKYPLTFGSGTKLEIKRADAAPTVSIFPPSTEQLATGGASVVCLMNNFYPRDISVKWKIDGTERRDGVLDSVTDQDSKDSTYSMSSTLSLTKADYESHNLYTCEVVHKTSSSPVVKSFNRNEC
notes: Parental rat hybridoma, rat IgG2a

EC50 [6]: 0.067 nM
B4: PI-HX-3043 (antibody, rat IgG2a)
heavy: QVNLLQSRAALVKPGASVKLSCKASGYTFTDYYLHWVKQSHAKSLEWIGYINPNNAYTSYNEKFKSKATLTVDKSTNTAYMELSRLTSADSATYYCARDTTDYYNLHFAYWGQGTLVTVSSAETTAPSVYPLAPGTALKSNSMVTLGCLVKGYFPEPVTVTWNSGALSSGVHTFPAVLQSGLYTLTSSVTVPSSTWSSQAVTCNVAHPASSTKVDKKIVPRECNPCGCTGSEVSSVFIFPPKTKDVLTITLTPKVTCVVVDISQNDPEVRFSWFIDDVEVHTAQTHAPEKQSNSTLRSVSELPIVHRDWLNGKTFKCKVNSGAFPAPIEKSISKPEGTPRGPQVYTMAPPKEEMTQSQVSITCMVKGFYPPDIYTEWKMNGQPQENYKNTPPTMDTDGSYFLYSKLNVKKETWQQGNTFTCSVLHEGLHNHHTEKSLSHSP
light: DIQMTQSPASLSASLGETVSIECLTSEGISNDLAWYQQKSGKSPQLLIYDASRLEDGVPSRFSGSGSGTRYSLKISGMQTEDEADYFCQQSYKYPLTFGSGTKLEIKRADAAPTVSIFPPSTEQLATGGASVVCLMNNFYPRDISVKWKIDGTERRDGVLDSVTDQDSKDSTYSMSSTLSLTKADYESHNLYTCEVVHKTSSSPVVKSFNRNEC
notes: as for B3
